Test results reported in patent publication US11230581B2, “Peptides and combination of peptides for use in immunotherapy against ovarian cancer and other cancers” (Immatics Biotechnologies GmbH, priority 2015, dated 2022).

biological target: HLA-A*02:01 (Homo sapiens, UniProt P04439, D140Y/D185E/D98H/E176V/E277Q/G131W/G231S/I119V/I121R/I166T/I218V/L300P/L318F/N151K/N90K/P208A/P217A/Q86G/Q94H/R138H/R169H/T345S); experiment: MHC binding assay (UV-ligand exchange, β2m ELISA, peptide exchange yield); settings: binding of HLA-class I restricted peptides to HLA-A*02:01, UV-ligand exchange
How it was run: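 Yield of stabilized complexes quantified via the β2m light chain in an ELISA (streptavidin capture, 100-fold diluted monomers, HRP anti-β2m 2 ug/ml at 37 °C, TMB, A450). The complexes come from UV-triggered replacement of a photocleavable ligand by the candidate peptide.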

Row | Peptide exchange (MHC class I binding score, peptide exchange yield) | Substance
1 | “+++” (≥50 = +++) | 463 (SLVESHLSDQLTL; listed as Homo sapiens) [compound 463]
2 | “+++” (≥50 = +++) | 182 (MLLEAPGIFL; listed as Homo sapiens) [compound 182]
3 | “+++” (≥50 = +++) | 306 (ALVNVQIPL; listed as Homo sapiens) [compound 306]
4 | “+++” (≥50 = +++) | 613 (RLLPPGAVVAV; listed as Homo sapiens) [compound 613]
5 | “+++” (≥50 = +++) | 622 (RLLGEEVVRVLQA; listed as Homo sapiens) [compound 622]
6 | “+++” (≥50 = +++) | 152 (ILFEDIFDV; listed as Homo sapiens) [compound 152]
7 | “+++” (≥50 = +++) | 486 (AVMESIQGV; listed as Homo sapiens) [compound 486]
8 | “++” (≥20% = ++) | 154 (ALDDGTPAL; listed as Homo sapiens) [compound 154]
9 | “+++” (≥50 = +++) | 465 (QLCDLNAEL; listed as Homo sapiens) [compound 465]
10 | “++” (≥20% = ++) | 398 (KLLEEDGTIITL; listed as Homo sapiens) [compound 398]
11 | “+++” (≥50 = +++) | 391 (YVYPQRLNFV; listed as Homo sapiens) [compound 391]
12 | “+++” (≥50 = +++) | 12 (SLWPDPMEV; listed as Homo sapiens) [compound 12]
13 | “+++” (≥50 = +++) | 17 (GLLPGDRLVSV; listed as Homo sapiens) [compound 17]
14 | “+++” (≥50 = +++) | 78 (SLFSSLEPQIQPV; listed as Homo sapiens) [compound 78]
15 | “+++” (≥50 = +++) | 477 (ALLPASGQIAL; listed as Homo sapiens) [compound 477]
16 | “++” (≥20% = ++) | 24 (SLSDGLEEV; listed as Homo sapiens) [compound 24]
17 | “+++” (≥50 = +++) | 256 (FLPPEHTIVYI; listed as Homo sapiens) [compound 256]
18 | “+++” (≥50 = +++) | 239 (AAFAGKLLSV; listed as Homo sapiens) [compound 239]
19 | “++++” (≥75% = ++++) | 196 (YLYSVEIKL; listed as Homo sapiens) [compound 196]
20 | “+++” (≥50 = +++) | 572 (ALADLIEKELSV; listed as Homo sapiens) [compound 572]
21 | “++” (≥20% = ++) | 566 (VIADGGIQNV; listed as Homo sapiens) [compound 566]
22 | “+++” (≥50 = +++) | 500 (SLMEDQVLQL; listed as Homo sapiens) [compound 500]
23 | “+++” (≥50 = +++) | 102 (YLFESEGLVL; listed as Homo sapiens) [compound 102]
24 | “+++” (≥50 = +++) | 175 (YLFENISQL; listed as Homo sapiens) [compound 175]
25 | “++” (≥20% = ++) | 133 (KVLSNIHTV; listed as Homo sapiens) [compound 133]

Row | Peptide exchange (MHC class I binding score, peptide exchange yield) | Substance
26 | “++” (≥20% = ++) | 405 (ALYDVFLEV; listed as Homo sapiens) [compound 405]
27 | “+++” (≥50 = +++) | 512 (SLSEIVPCL; listed as Homo sapiens) [compound 512]
28 | “++” (≥20% = ++) | 18 (YLVAKLVEV; listed as Homo sapiens) [compound 18]
29 | “++” (≥20% = ++) | 453 (KLLEATSAV; listed as Homo sapiens) [compound 453]
30 | “+++” (≥50 = +++) | 586 (KLKPGDLVGV; listed as Homo sapiens) [compound 586]
31 | “+++” (≥50 = +++) | 301 (FLVEDLVDSL; listed as Homo sapiens) [compound 301]
32 | “+++” (≥50 = +++) | 436 (HLAEVSAEV; listed as Homo sapiens) [compound 436]
33 | “+++” (≥50 = +++) | 286 (YLFPGIPEL; listed as Homo sapiens) [compound 286]
34 | “+++” (≥50 = +++) | 471 (YLYNNMIAKI; listed as Homo sapiens) [compound 471]
35 | “++” (≥20% = ++) | 333 (FLPDANSSV; listed as Homo sapiens) [compound 333]
36 | “+++” (≥50 = +++) | 530 (VMYADIGGMDI; listed as Homo sapiens) [compound 530]
37 | “+++” (≥50 = +++) | 351 (SLIPNLRNV; listed as Homo sapiens) [compound 351]
38 | “+++” (≥50 = +++) | 28 (QLLDETSAITL; listed as Homo sapiens) [compound 28]
39 | “+++” (≥50 = +++) | 67 (TLLAEALVTV; listed as Homo sapiens) [compound 67]
40 | “+++” (≥50 = +++) | 617 (ALMYESEKVGV; listed as Homo sapiens) [compound 617]
41 | “+++” (≥50 = +++) | 5 (HLTEVYPEL; listed as Homo sapiens) [compound 5]
42 | “+++” (≥50 = +++) | 2 (SLLEADPFL; listed as Homo sapiens) [compound 2]
43 | “++” (≥20% = ++) | 505 (SLAPGDVVRQV; listed as Homo sapiens) [compound 505]
44 | “++” (≥20% = ++) | 222 (NLIENVQRL; listed as Homo sapiens) [compound 222]
45 | “+++” (≥50 = +++) | 361 (ALYELEGTTV; listed as Homo sapiens) [compound 361]
46 | “++++” (≥75% = ++++) | 159 (GLVGNPLPSV; listed as Homo sapiens) [compound 159]
47 | “++” (≥20% = ++) | 128 (YLFDDPLSAV; listed as Homo sapiens) [compound 128]
48 | “+++” (≥50 = +++) | 472 (KLLEVSDDPQV; listed as Homo sapiens) [compound 472]
49 | “+++” (≥50 = +++) | 111 (YVWGFYPAEV; listed as Homo sapiens) [compound 111]
50 | “++++” (≥75% = ++++) | 321 (GLFEDVTQPGILL; listed as Homo sapiens) [compound 321]
